According to US20220195049A1 (Scripps Research, published 2022):
Where a chain is given by its changes, count along the chain named.

B1: KL001 (PL110) (antibody, V domains shown)
VH: QVQLVESGAEVKKPGSSVKVSCKASGGTFSSYAISWVRQAPGQGLEWMGRIIPILGIANYAQKFQGRVTVTADKSTSTAYMELSSLRSEDTAVYYCARSGYSYAYGSFDYWGQGTLVTVSS
VL: QLVLTQPPSVSGAPGQTVTISCTGPTIGAGYDVHWYQQLPGAAPKLLIYGNLNRPSGVPDRFSGSKSGTSASLAITDLQAEDEADYYCQSYDSRLGVVFGGGTKLTVLR
notes: IgG (VH-CH1-hinge-CH2-CH3 and VL-Ck); also called KL001 clone
B2: KL001-08 (antibody, V domains shown)
VH: B1 VH with S31G, I54A, S102G
VL: QLVLTQPPSVSGAPGQTVTISCTGPTIGAGYDVHWYQQLPGAAPKLLIYGNLNRPSGVPDRFSGSKSGTSASLAITDLQAEDEADYYCQSYDSTHGVVFGGGTKLTVL
notes: In the Biacore assay it was captured by anti-human IgG (Fc), so it carried a human Fc there; also called KL001-8
B3: KL001-13 (antibody, human IgG1, kappa, V domains shown)
VH: B1 VH with S102G
VL: B1 VL with P25Q
notes: also called KL001-13 candidate antibody

How the values were obtained:
[1] = target: human PD-L1 expressed on the cell surface (human, UniProt Q9NZQ7 19-290); test: cell-based or functional assay
Sequence of human PD-L1 expressed on the cell surface (Q9NZQ7 19-290): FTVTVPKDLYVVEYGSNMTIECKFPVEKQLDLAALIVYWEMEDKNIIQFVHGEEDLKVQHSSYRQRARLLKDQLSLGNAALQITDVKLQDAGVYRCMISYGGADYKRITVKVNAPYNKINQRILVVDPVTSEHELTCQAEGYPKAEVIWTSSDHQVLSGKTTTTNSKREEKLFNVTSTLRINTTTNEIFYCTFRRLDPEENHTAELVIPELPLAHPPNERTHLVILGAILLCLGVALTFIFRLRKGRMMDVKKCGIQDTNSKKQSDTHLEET

[2] = target: T1, PD-L1-Fc (PD-L1 antigen protein, extracellular region Met1-Thr239 fused to human Fc) (human, UniProt Q9NZQ7 19-239); test: BLI (Octet); PD-1-coated biosensor dipped in a mix of PD-L1 antigen protein and antibody; KD from the Octet software
T1 construct: range 1-239; the secreted protein lacks it; also called PD-L1-Fc antigen; pCEP4-PDL1-Fc product; not shown: human Fc fragment of the pCEP4-Fc vector
T1 sequence (Q9NZQ7 19-239): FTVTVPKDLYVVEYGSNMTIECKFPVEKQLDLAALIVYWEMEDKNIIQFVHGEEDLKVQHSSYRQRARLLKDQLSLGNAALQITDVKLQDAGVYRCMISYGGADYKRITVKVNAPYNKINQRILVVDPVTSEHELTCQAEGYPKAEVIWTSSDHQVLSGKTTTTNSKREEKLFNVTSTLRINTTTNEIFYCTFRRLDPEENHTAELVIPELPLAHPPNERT

[3] = target: T2, mouse PD-L1 on IFN-gamma-treated MC38 murine colon cancer cells (mouse, UniProt Q9EP73 19-290); test: the sentence names no assay
T2 construct: whole, on cells; also called mouse PD-L1 protein
T2 sequence (Q9EP73 19-290): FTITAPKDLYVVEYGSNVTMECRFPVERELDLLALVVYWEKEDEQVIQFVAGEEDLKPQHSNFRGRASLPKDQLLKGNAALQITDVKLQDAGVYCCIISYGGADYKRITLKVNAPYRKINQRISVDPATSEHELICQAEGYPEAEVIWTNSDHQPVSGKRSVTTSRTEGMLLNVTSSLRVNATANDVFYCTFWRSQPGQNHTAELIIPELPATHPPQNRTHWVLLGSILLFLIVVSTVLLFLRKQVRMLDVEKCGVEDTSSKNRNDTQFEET

[4] = target: T3, mouse PD-L1 antigen protein (mouse, UniProt Q9EP73 19-238, limits assumed); test: SPR (Biacore T200), antibody captured by anti-human IgG (Fc) on a CM5 chip, mPD-L1 as analyte, 1:1 binding model
T3 sequence (Q9EP73 19-238 limits assumed): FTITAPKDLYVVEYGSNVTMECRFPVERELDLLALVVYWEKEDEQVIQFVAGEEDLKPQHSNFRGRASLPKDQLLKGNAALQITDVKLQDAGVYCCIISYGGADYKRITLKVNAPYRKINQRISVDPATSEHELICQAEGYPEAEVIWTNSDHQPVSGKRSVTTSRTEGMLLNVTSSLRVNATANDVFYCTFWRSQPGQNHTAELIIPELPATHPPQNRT
Procedure: (§1) 3) In order to remove the bound antibody every cycle, a regeneration solution (3 M MgCl₂) was injected at a flow rate of 30 μl/min for 30 seconds, and the experimental data were obtained using a 1:1 binding model of BIA evaluation software version 1.0.

[5] = target: T4, human PD-L1 antigen protein (Sino Biological) (human, UniProt Q9NZQ7 19-238); test: SPR (Biacore T200), antibody captured by anti-human IgG (Fc) on a CM5 chip, hPD-L1 as analyte, 1:1 binding model
T4 construct: Bought from Sino Biological
T4 sequence (Q9NZQ7 19-238 limits assumed): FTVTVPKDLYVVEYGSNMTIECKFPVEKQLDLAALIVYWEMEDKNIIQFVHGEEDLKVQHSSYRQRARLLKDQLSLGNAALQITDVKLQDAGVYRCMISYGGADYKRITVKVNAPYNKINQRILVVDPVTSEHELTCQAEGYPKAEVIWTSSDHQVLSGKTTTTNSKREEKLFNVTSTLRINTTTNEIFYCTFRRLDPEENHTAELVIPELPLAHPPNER
Procedure: as §1

[6] = target: T4, human PD-L1 antigen protein (Sino …); test: SPR (Biacore T200), antibody captured by anti-human IgG (Fc), PD-L1 as analyte, 1:1 model
Procedure: as §1

[7] = target: T3, mouse PD-L1 antigen protein; test: as above
Procedure: as §1

| Binder | PD-1/PD-L1 binding inhibitory performance relative to 100% of the MK3475 antibody (Promega PD-1/PD-L1 Blockade Bioassay) [1] [%] | Kd [2] [nM] | binding result [3] | koff [4] [s⁻¹] | kon [4] [M⁻¹ s⁻¹] | koff [5] [s⁻¹] | kon [5] [M⁻¹ s⁻¹] | Kd [6] [nM] | Kd [7] [nM] |
| --- | --- | --- | --- | --- | --- | --- | --- | --- | --- |
| B1 | 89 | 0.0584 | binds |  |  |  |  |  |  |
| B2 |  | 0.0142 |  | 0.0106 | 1.65e+06 | 0.000277 | 4.13e+06 | 0.0671 | 6.4 |
| B3 |  | 0.00488 |  | 0.00878 | 3.14e+06 | 0.000319 | 5.05e+06 | ~0.0632 | ~2.8 |
